Marks after values point to notes of the source that are not given here.
Target: T1, bovine pancreatic trypsin (Bos taurus, UniProt P00760)
T1 construct: purchased Worthington (Worthington Biochemical Corp.)
T1 sequence (P00760 24-246): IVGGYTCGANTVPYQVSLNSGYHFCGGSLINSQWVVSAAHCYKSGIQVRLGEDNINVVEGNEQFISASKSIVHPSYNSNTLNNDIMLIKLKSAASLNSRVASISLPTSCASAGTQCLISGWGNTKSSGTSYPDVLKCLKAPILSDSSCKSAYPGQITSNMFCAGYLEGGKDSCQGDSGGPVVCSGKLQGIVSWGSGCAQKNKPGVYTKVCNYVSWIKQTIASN
Assay: BBIt-AV:BCE activity ratio, microtiter plate screens (primary, quadruplicate secondary)
Format: biochemical
Conditions: for BBIt-AV:BCE activity ratio relative to unmodified BBIt-AV: after activation with reducing agent (2-mercaptoethanol); for relative activity of the amino acid substitution (BBI:BCE activity ratio vs BBIt-AV), amino acid present in BBItc-AV / relative activity of the amino acid substitution (BBI:BCE activity ratio vs BBIt-AV), amino acid present in BBIsb3-AV / relative activity of the amino acid substitution (BBI:BCE activity ratio vs BBIt-AV), amino acid present in BBIdb-AV: single substitution in BBIt-AV, in the presence of reducing agent
Method: The cultures in each master plate were thawed and a pin replicator was used to inoculate a new sterile microtiter plate containing 150 μl of Luria broth with 5 μg/ml chloramphenicol in each well. The plates were grown for ˜10 hrs in a humidified and aerated box as described above. For controls, the cultures in two wells were replaced with BBI and BBI-AV cultures that had been grown concurrently in 15 ml culture tubes (5 ml of Luria broth with 5 μg/ml chloramphenicol). After the cultures were grown, the plate was used to inoculate two duplicate 96-well filter plates (Millipore, MSGV2210) containing 150 μl of MBD medium (Vogtentanz et al., 2007) with 5 μg/ml chloramphenicol in each well by using a pin replicator. The duplicate plates were grown for ˜14 hours (as above, with plastic spacers placed between the stacked plates to allow for efficient air flow around the plates) and then 2-mecaptoethanol was added to each well in one of the plates to a final concentration of 2 mM. The plates were then grown for an additional ˜46 hours. The 96-well filter plates containing the culture broth (with or without added 2-mecaptoethanol) were then assayed for BBI and BCE activity.
Libraries were analyzed using dilutions of cultures grown in 96-well plates. Typically, the culture broth from each well was diluted (200 fold) in Assay Buffer (100 mM Tris pH 8.6, 0.005% Tween 80) and transferred to a second microtiter plate (CoStar 9017, Corning, Inc., Corning, N.Y.). Then, 20 μl of the diluted samples were transferred to a third microtiter plate. A standard curve was created by adding 20, 10, 5 or 2.5 μl of the diluted sBBI (SEQ ID NO:13) control culture to empty wells. Then, 80 μL of 50 ng/ml trypsin (bovine pancreatic trypsin, Worthington Biochemical Corp., Lakewood, N.J.) (prepared from a 1 mg/mL stock solution diluted into Assay Buffer) was added to each well of the plate. The reactions were mixed and incubated 15 min at room temperature. After the incubation, 100 μL of 0.5 mg/ml trypsin substrate (succinyl-Ala-Ala-Pro-Arg-para-nitroanilide, Bachem Bioscience, Inc., King of Prussia, Pa.), diluted in Assay Buffer from a 100 mg/ml solution in DMSO, was added to each well, mixed, and the absorbance at 405 nm was monitored for 15 min, with 1 time point recorded every 12 sec using a Spectra Max 250 (Molecular Devices). The data points were used to determine the rate for each reaction. The standard curve was generated by plotting the reaction rate versus the BBI volume and was fitted to a four-parameter equation. All data fitting was done using software supplied by the manufacturer (Molecular Devices Corp., Sunnyvale, Calif.). The activity of each BBIt-AV variant was calculated from the standard curve. Thus, the activities of all modified variant proteins were determined relative to the activity in the sBBI control (BBI-WT) culture.
The concentration of BCE was determined by an activity assay using purified BCE as a standard as described above and by (Vogtentanz et al. 2007). For the analysis of libraries grown in 96-well microtiter plates, 20 μl of culture broth were transferred to each well of a new microtiter plate. A standard curve was created by adding 20, 10, 5 or 2.5 μl of the diluted BBI-WT control culture to these empty wells. Then, 180 μl of the BCE substrate (0.25 μg/ml in Assay Buffer), 4-nitrophenyl β-D-cellobioside (Sigma, St. Louis, Mo.), was added to the plate. The plate was mixed and the absorbance at 405 nm monitored for 15 min, with 1 time point recorded every 12 s using a Spectra Max 250 (Molecular Devices Corp., Sunnyvale, Calif.). The data points were used to determine the rate for each reaction. The standard curve was generated by plotting rate versus culture volume and was fit to a quadratic curve. The BCE concentration in each variant culture was determined relative to the standard control culture. […]

B1: BBIt-AV-F50T: BBIt-AV (SEQ ID NO:187) with single substitution F50T (protein)
chain: DDESSKPCCDQCACTKSNPPQCRCSDMRLNSCHSACKSCACYNLYGWTCTCVDITDFCYEPCKPSE
modifications: synthetic BBIt-AV sequence
With B1 the “BBIt-AV:BCE activity ratio relative to unmodified BBIt-AV” value was “three-fold greater” and the “initial BBIt-AV:BCE activity ratio relative to unmodified BBIt-AV” value (prior to activation) was “comparable to that of the unmodified BBIt-AV parent”.

B2: K37E: BBIt-AV (SEQ ID NO:187) with single substitution K37E (protein)
chain: DDESSKPCCDQCACTKSNPPQCRCSDMRLNSCHSACESCACYNLYGWTCFCVDITDFCYEPCKPSE
modifications: synthetic BBIt-AV sequence
B2 was tested, and the “relative activity of the amino acid substitution (BBI:BCE activity ratio vs BBIt-AV), amino acid present in BBItc-AV” value was “E (+/−)”.

B3: R23H: BBIt-AV (SEQ ID NO:187) with single substitution R23H (protein)
chain: DDESSKPCCDQCACTKSNPPQCHCSDMRLNSCHSACKSCACYNLYGWTCFCVDITDFCYEPCKPSE
modifications: synthetic BBIt-AV sequence
With B3 the “relative activity of the amino acid substitution (BBI:BCE activity ratio vs BBIt-AV), amino acid present in BBItc-AV” value was “H (−)”.

B4: R23S: BBIt-AV (SEQ ID NO:187) with single substitution R23S (protein)
chain: DDESSKPCCDQCACTKSNPPQCSCSDMRLNSCHSACKSCACYNLYGWTCFCVDITDFCYEPCKPSE
modifications: synthetic BBIt-AV sequence
With B4 the “relative activity of the amino acid substitution (BBI:BCE activity ratio vs BBIt-AV), amino acid present in BBIsb3-AV” value was “S (−−−) (the greater the number of “−”, the greater the difference.)”.

B5: S25A: BBIt-AV (SEQ ID NO:187) with single substitution S25A (protein)
chain: DDESSKPCCDQCACTKSNPPQCRCADMRLNSCHSACKSCACYNLYGWTCFCVDITDFCYEPCKPSE
modifications: synthetic BBIt-AV sequence
B5 was tested, and the “relative activity of the amino acid substitution (BBI:BCE activity ratio vs BBIt-AV), amino acid present in BBItc-AV” value was “A (+)”.

B6: M27I: BBIt-AV (SEQ ID NO:187) with single substitution M27I (protein)
chain: DDESSKPCCDQCACTKSNPPQCRCSDIRLNSCHSACKSCACYNLYGWTCFCVDITDFCYEPCKPSE
modifications: synthetic BBIt-AV sequence
With B6 the “relative activity of the amino acid substitution (BBI:BCE activity ratio vs BBIt-AV), amino acid present in BBIsb3-AV” value was “I (+/−)” and the “relative activity of the amino acid substitution (BBI:BCE activity ratio vs BBIt-AV), amino acid present in BBItc-AV” value was “I (+/−)”.

B7: A35D: BBIt-AV (SEQ ID NO:187) with single substitution A35D (protein)
chain: DDESSKPCCDQCACTKSNPPQCRCSDMRLNSCHSDCKSCACYNLYGWTCFCVDITDFCYEPCKPSE
modifications: synthetic BBIt-AV sequence
For B7, the “relative activity of the amino acid substitution (BBI:BCE activity ratio vs BBIt-AV), amino acid present in BBIsb3-AV” value was “D (+/−)”.

B8: N18I: BBIt-AV (SEQ ID NO:187) with single substitution N18I (protein)
chain: DDESSKPCCDQCACTKSIPPQCRCSDMRLNSCHSACKSCACYNLYGWTCFCVDITDFCYEPCKPSE
modifications: synthetic BBIt-AV sequence
In the case of B8, the “relative activity of the amino acid substitution (BBI:BCE activity ratio vs BBIt-AV), amino acid present in BBIdb-AV” value is reported as “I (+++) (the greater the number of “+”, the greater the difference.)” and the “relative activity of the amino acid substitution (BBI:BCE activity ratio vs BBIt-AV), amino acid present in BBItc-AV” value is reported as “I (+++) (the greater the number of “+”, the greater the difference.)”.

B9: F50R: BBIt-AV (SEQ ID NO:187) with single substitution F50R (protein)
chain: DDESSKPCCDQCACTKSNPPQCRCSDMRLNSCHSACKSCACYNLYGWTCRCVDITDFCYEPCKPSE
modifications: synthetic BBIt-AV sequence
In the case of B9, the “BBIt-AV:BCE activity ratio relative to unmodified BBIt-AV” value is reported as “best BBIt-AV:BCE-activity ratio”, the “relative activity of the amino acid substitution (BBI:BCE activity ratio vs BBIt-AV), amino acid present in BBIsb3-AV” value is reported as “R (++) (the greater the number of “+”, the greater the difference.)” and the “relative activity of the amino acid substitution (BBI:BCE activity ratio vs BBIt-AV), amino acid present in BBItc-AV” value is reported as “R (++) (the greater the number of “+”, the greater the difference.)”.

B10: Q11L: BBIt-AV (SEQ ID NO:187) with single substitution Q11L (protein)
chain: DDESSKPCCDLCACTKSNPPQCRCSDMRLNSCHSACKSCACYNLYGWTCFCVDITDFCYEPCKPSE
modifications: synthetic BBIt-AV sequence
For B10, the “relative activity of the amino acid substitution (BBI:BCE activity ratio vs BBIt-AV), amino acid present in BBIsb3-AV” value was “L (+/−)**”.

B11: S25E: BBIt-AV (SEQ ID NO:187) with single substitution S25E (protein)
chain: DDESSKPCCDQCACTKSNPPQCRCEDMRLNSCHSACKSCACYNLYGWTCFCVDITDFCYEPCKPSE
modifications: synthetic BBIt-AV sequence
For B11, the “relative activity of the amino acid substitution (BBI:BCE activity ratio vs BBIt-AV), amino acid present in BBIsb3-AV” value was “E (−−−) (the greater the number of “−”, the greater the difference.)”.

B12: S25T: BBIt-AV (SEQ ID NO:187) with single substitution S25T (protein)
chain: DDESSKPCCDQCACTKSNPPQCRCTDMRLNSCHSACKSCACYNLYGWTCFCVDITDFCYEPCKPSE
modifications: synthetic BBIt-AV sequence
In the case of B12, the “relative activity of the amino acid substitution (BBI:BCE activity ratio vs BBIt-AV), amino acid present in BBIdb-AV” value is reported as “T (+/−)”.

B13: M27V: BBIt-AV (SEQ ID NO:187) with single substitution M27V (protein)
chain: DDESSKPCCDQCACTKSNPPQCRCSDVRLNSCHSACKSCACYNLYGWTCFCVDITDFCYEPCKPSE
modifications: synthetic BBIt-AV sequence
B13 was tested, and the “relative activity of the amino acid substitution (BBI:BCE activity ratio vs BBIt-AV), amino acid present in BBIdb-AV” value was “V (+/−)”.

B14: A13M: BBIt-AV (SEQ ID NO:187) with single substitution A13M (protein)
chain: DDESSKPCCDQCMCTKSNPPQCRCSDMRLNSCHSACKSCACYNLYGWTCFCVDITDFCYEPCKPSE
modifications: synthetic BBIt-AV sequence
With B14 the “relative activity of the amino acid substitution (BBI:BCE activity ratio vs BBIt-AV), amino acid present in BBIsb3-AV” value was “M (+)***”.

B15: N18M: BBIt-AV (SEQ ID NO:187) with single substitution N18M (protein)
chain: DDESSKPCCDQCACTKSMPPQCRCSDMRLNSCHSACKSCACYNLYGWTCFCVDITDFCYEPCKPSE
modifications: synthetic BBIt-AV sequence
With B15 the “relative activity of the amino acid substitution (BBI:BCE activity ratio vs BBIt-AV), amino acid present in BBIsb3-AV” value was “M (+/−)”.

B16: Q11R: BBIt-AV (SEQ ID NO:187) with single substitution Q11R (protein)
chain: DDESSKPCCDRCACTKSNPPQCRCSDMRLNSCHSACKSCACYNLYGWTCFCVDITDFCYEPCKPSE
modifications: synthetic BBIt-AV sequence
In the case of B16, the “relative activity of the amino acid substitution (BBI:BCE activity ratio vs BBIt-AV), amino acid present in BBItc-AV” value is reported as “R (+/−)”.

Source: patent US7772181B2, “Personal care compositions comprising modified variant Bowman Birk Protease Inhibitors” (Danisco US Inc., priority 2008, dated 2010)
